Assay in all cases: LC-MRM-MS product quantification, non-linear regression
What all share (format): biochemical, Arabidopsis thaliana

Substrate in data set [1]: O=C(O)C(=O)CO
The following applies: NADPH (2 mM), 100 mM potassium phosphate pH 7.0, 4 mM DTT, 40 μM ascorbate, 30 °C. The text has this: (§1) LC-MRM-MS product quantification, non-linear regression on HPPR2

Substrate in data set [2]: O=C(O)C(=O)Cc1ccccc1
The following applies: NADPH (2 mM), 100 mM potassium phosphate pH 7.0, 4 mM DTT, 40 μM ascorbate, 30 °C.
Source text: as §1

Substrate in data set [3]: O=C(O)C(=O)Cc1ccc(O)cc1
The following applies: NADPH (2 mM), 100 mM potassium phosphate pH 7.0, 4 mM DTT, 40 μM ascorbate, 30 °C.
Source text: as §1

Substrate in data set [4]: O=C(O)C(=O)CO
The following applies: NADPH (2 mM), 100 mM potassium phosphate pH 7.0, 4 mM DTT, 40 μM ascorbate, 30 °C. An excerpt: (§2) LC-MRM-MS product quantification, non-linear regression on HPPR3
This is another data set of the same source.

Substrate in data set [5]: O=C(O)C(=O)Cc1ccccc1
The following applies: NADPH (2 mM), 100 mM potassium phosphate pH 7.0, 4 mM DTT, 40 μM ascorbate, 30 °C.
Source text: as §2
The source holds these as a separate data set.

Substrate in data set [6]: O=C(O)C(=O)Cc1ccc(O)cc1
The following applies: NADPH (2 mM), 100 mM potassium phosphate pH 7.0, 4 mM DTT, 40 μM ascorbate, 30 °C.
Source text: as §2
The source holds these as a separate data set.

Substrate in data set [7]: O=C(O)C(=O)CO
The following applies: NADH (2 mM), 100 mM potassium phosphate pH 7.0, 4 mM DTT, 40 μM ascorbate, 30 °C. The text has this:
LC-MRM-MS product quantification, non-linear regression on HPR1

B1: HPPR2 (Arabidopsis thaliana) (protein)
chain: MESIGVLMMCPMSSYLENELEKRFNLLRFWTSPEKSVLLETHRNSIRAVVGNASAGADAQLISDLPNLEIVSSFSVGLDKIDLGKCKEKGIRVTNTPDVLTEDVADLAIGLILALLRRLCECDRYVRSGKWKQGEFQLTTKFSGKSVGIIGLGRIGTAIAKRAEAFSCPINYYSRTIKPDVAYKYYPTVVDLAQNSDILVVACPLTEQTRHIVDRQVMDALGAKGVLINIGRGPHVDEQELIKALTEGRLGGAALDVFEQEPHVPEELFGLENVVLLPHVGSGTVETRNAMADLVVGNLEAHFSGKSLLTPVV
notes: coding region from Arabidopsis cDNA in pDEST17, His-tagged, E. coli, Ni-NTA purified
Turning to B1, in data set [1], the Km (usually the substrate concentration at which the rate is half of its maximum) was 1050 ± 390 µM; the kcat (commonly the maximal rate divided by the concentration of active sites) was found to be 0.926 ± 0.0788 s⁻¹; the kcat/Km – broadly, the turnover number divided by the Michaelis constant – worked out at 950 ± 296 M⁻¹ s⁻¹. Also, in data set [2], the Km came out at 3700 ± 750 µM, the kcat was found to be 0.0333 ± 0.00983 s⁻¹ and the kcat/Km was found to be 9 ± 1.17 M⁻¹ s⁻¹. For the same protein, in data set [3], the Km was 800 ± 160 µM, the kcat was 0.122 ± 0.0085 s⁻¹ and the kcat/Km is 157 ± 36.3 M⁻¹ s⁻¹.

B2: HPPR3 (Arabidopsis thaliana) (protein)
chain: MAESSEPPVVLLHRPPSLTFMDEILTREFRTLITDTSSSESLPSFFPRHASSARAFVISGRLPVTDELLSHLPSLQILVCTSVGIDHIDLAACKRRGIVITNAGNAFSDDVADCAVGLLISVLRRIPAADRYVRSGNWAKFGDFQLGSKVSGKRVGIVGLGSIGSFVAKRLESFGCVISYNSRSQKQSSPYRYYSDILSLAENNDVLVLCCSLTDETHHIVNREVMELLGKDGVVINVGRGKLIDEKEMVKCLVDGVIGGAGLDVFENEPAVPQELFGLDNVVLSPHFAVATPGSLDNVAQIALANLKAFFSNRPLLSPVQLD
notes: as for B1
B2: in data set [4], the Km was determined as 3570 ± 480 µM, the turnover number (kcat) worked out at 0.0518 ± 0.0035 s⁻¹ and the kcat/Km turned out to be 14.8 ± 2.83 M⁻¹ s⁻¹. Also, in data set [5], the Km amounted to 1520 ± 50 µM, the kcat is 0.611 ± 0.0692 s⁻¹ and the kcat/Km is 402 ± 49.2 M⁻¹ s⁻¹. For the same protein, in data set [6], the Km turned out to be 370 ± 60 µM, the catalytic constant (kcat) was 0.285 ± 0.0158 s⁻¹ and the kcat/Km worked out at 785 ± 87.3 M⁻¹ s⁻¹.

B3: HPR1 (Arabidopsis thaliana) (protein)
chain: MAKPVSIEVYNPNGKYRVVSTKPMPGTRWINLLVDQGCRVEICHLKKTILSVEDIIDLIGDKCDGVIGQLTEDWGETLFSALSKAGGKAFSNMAVGYNNVDVEAANKYGIAVGNTPGVLTETTAELAASLSLAAARRIVEADEFMRGGLYEGWLPHLFVGNLLKGQTVGVIGAGRIGSAYARMMVEGFKMNLIYFDLYQSTRLEKFVTAYGQFLKANGEQPVTWKRASSMEEVLREADLISLHPVLDKTTYHLVNKERLAMMKKEAILVNCSRGPVIDEAALVEHLKENPMFRVGLDVFEEEPFMKPGLADTKNAIVVPHIASASKWTREGMATLAALNVLGRVKGYPIWHDPNRVDPFLNENASPPNASPSIVNSKALGLPVSKL
notes: as for B1
Regarding B3, in data set [7], the Km amounted to 1530 ± 720 µM, the kcat was 3.46 ± 0.0838 s⁻¹ and the kcat/Km stood at 2570 ± 1040 M⁻¹ s⁻¹.

The values above are taken from PMC6133988, “Characterization of Arabidopsis thaliana Hydroxyphenylpyruvate Reductases in the Tyrosine Conversion Pathway” (Frontiers in Plant Science, 2018).
